Experimental data: the RNAGym collection of RNA variant scans (doi:10.7554/elife.90254)

B1: LINE1-full (parent)
chain: UACGUAGGUGGUUUUCCCCUGAUAGUGCUAAGGGGGCCUGGAAGUUUGGACUGGGCAGAGCUCAACACAGCGUGGCAAAGUGGCUGUGGCUAGACUGCCUCUCUGGAUUCCUCGUCACUCAGCAGGGCAUCUCUGAGAGAAAUGCC

Variants of: B1
Assay: self-cleavage, relative activity (ratio to wild type); higher = more cleavage; in vitro, sequencing; the parent is a self-cleaving ribozyme

Point of comparison: A22G A31G, self-cleavage 0.35. Against it:
- A22G U39A — higher, 1.72
- A22G U39C — higher, 1.14
- A22G C61U — lower, 0.07
- U20C A22U — higher, 1.12
- U20C A22G — higher, 1.04
- U20C C113A — higher, 1.06
- A22C A142G — higher, 1.27
- U20A C95A — lower, 0.09
- U20A C95U — lower, 0.13
- A22G A50U — higher, 1.32
- A22G U23C — higher, 0.63
- C19U U91C — higher, 0.62
- U20C G60U — lower, 0.05
- A22G G36A — higher, 1.36
- U20C G36C — higher, 1.51
- U20A G127A — higher, 1.1
- U20A G126A — higher, 1.28
- U20G A22G — higher, 0.41
- G21A U102A — higher, 1.14
- U20G G48A — higher, 0.43
- U20C G27A — higher, 1.12
- U20C C38A — higher, 1.11
- G21A A50C — higher, 0.9
- G21A A50G — higher, 0.71
- A22G A92C — lower, 0.12
- U20A C56U — lower, 0.18
- U20C A92C — lower, 0.14
- G21U U91C — higher, 0.45
- A22G G82A — higher, 1.94
- U20C G54U — higher, 0.91
- A22G A67C — lower, 0.23
- A22G G54A — higher, 0.75
- A22G G54U — lower, 0.23
- U20A A78U — higher, 1.34
- U20C U39C — higher, 1.28
- U20C U39A — higher, 1.48
- U20C G88A — lower, 0.06
- C19U U81A — higher, 1.05
- U20A U115C — higher, 1.66
- A22G A31U — higher, 0.86
- U20C C99U — higher, 0.68
- U20C A69U — lower, 0.07
- U20C A69G — higher, 0.66
- U20A A24U — higher, 1.41
- U20C G40C — higher, 2.31
- U20G U85A — lower, 0.24
- G21A U104A — higher, 1.27
- U20C A121G — higher, 1.35
- C19U U130C — higher, 1.08
- A22G C99U — lower, 0.23
- U20A C37G — higher, 2.63
- U20G U81C — higher, 1.08
- U20G U81A — higher, 2.03
- A22G C116U — lower, 0.24
- A22G G33U — higher, 1.25
- U20A U39C — higher, 0.93
- U20A G53U — higher, 1.1
- U20C G21A — higher, 1.12
- A22G A121G — higher, 0.95
- A22G A121U — higher, 1
- G21A G82A — higher, 2
- A22C U143A — higher, 1.53
- U20A A22U — higher, 1.56
- U20A A22G — higher, 0.69
- A22G G89A — lower, 0.09
- C19U U73A — higher, 1.15
- C19U U73C — higher, 0.85
- A22G A141G — higher, 1.27
- U20A A79G — higher, 0.92
- A22G A117C — higher, 2.12
- U20A A136U — higher, 1.38
- U20A U91C — higher, 0.65
- G21A U112C — higher, 1.02
- U20C U143A — higher, 1.5
- A22G G72A — higher, 1.94
- U20A U62C — lower, 0.06
- U20A A64G — higher, 0.46
- U20C G126U — higher, 1.92
- G21A U134A — higher, 1.17
- U20G A77G — higher, 1.36
- A22G C66U — lower, 0.07
- C19U G125U — higher, 1.81
